# Source: PMC5463365, “Assembly and use of high-density recombinant peptide chips for large-scale ligand screening is a practical alternative to synthetic peptide libraries” (BMC Genomics, 2017)
# Where no end group is shown, it is not given here.
# B1: 5'FAM-labeled Strep-tag I peptide (peptide)
# peptide: {FAM}-AWRHPQFGG
# notes: Strep-tag I; source: synthetic peptide (GenScript Inc.)
# Tests used:
# [1] = target: T1, Streptavidin on Streptavidin-coated biosensors (UniProt P22629 25-183); assay: BLI; BLItz system; Streptavidin-coated biosensors exposed to chemically synthesized 5'FAM peptides for 2 min in ES2 buffer; only a single analyte concentration tested; conditions: both partners purified
# T1 construct: Streptavidin coated on disposable biosensors; also called Streptavidin biosensors; source: bought: Streptavidin-coated biosensors for ForteBio's BLItz system
# [2] = target: T2, Recombinant Streptavidin, unconjugated (UniProt P22629 25-183); assay: fluorescence polarisation; 20 nM 5'FAM-labeled peptide with rising concentrations of Streptavidin/StrepTactin, triplicates; ES2 buffer (100 mM potassium phosphate pH 7.4, 100 μg/ml bovine γ globulin, 0.02% NaN3); at least 2 h at RT or o/n at 4 °C; conditions: both partners purified
# T2 construct: Streptavidin, commercial recombinant protein; Used in the fluorescence polarisation assays; source: bought: recombinant, unconjugated format (Thermo Fisher Scientific, BioRad or Perkin Elmer, 'respectively')
# T2 sequence (P22629 25-183): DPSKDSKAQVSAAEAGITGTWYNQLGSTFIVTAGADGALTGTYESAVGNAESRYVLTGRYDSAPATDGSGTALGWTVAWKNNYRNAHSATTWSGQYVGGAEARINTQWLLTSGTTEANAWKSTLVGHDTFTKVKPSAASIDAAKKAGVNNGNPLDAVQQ
# T1 sequence (P22629 25-183): as above
Binder,Kd [1],Kd [2]
{FAM}-WSHPQFEK (Strep-tag II; source: synthetic peptide) [5'FAM-labeled Strep-tag II peptide],25.4 µM,13.3 µM
{FAM}-VSHPQAPF (B5; source: synthetic peptide) [5'FAM-labeled B5 peptide],79.5 µM,
B1,,2.75 µM
